The values below come from patent US5070188A, “Acylated epidermal growth factor” (Ethicon, Inc., priority 1989, dated 1991).

“And” between values parts separate entries of the source, which are not always exact repeats. Equal entries are not always repeated.

A short description of data set [1]: shelf stability, activity followed with the Receptor Binding Assay. It is filed as physicochemical. Conditions: for activity retained (RBA), 2 months/4° C.: stored 2 months at 4° C.; for activity retained (RBA), 2 months/37° C.: stored 2 months at 37° C. The text has this:
Samples are further analyzed by testing the biological activity in the Receptor Binding Assay (RBA) system and/or in a mitogenic assay system according to the standard procedure. Under these conditions, the extent of activity of modified EGF was compared with that of the unmodified EGF on a weight per weight basis. A similar test is used to follow the stability of EGF products. The RBA is described in Savage et al., Analytical Biochem, 111, pages 195 et seq. (1981) and in U.S. Pat. No. 4,717,717. For RBA studies, a cell line with a high density of receptors for EGF is grown to confluency in microwell plates. After removing the growth media and slightly fixing the cells, the binding of modified EGF to the cell surface in the presence of competing iodinated-EGF is compared with the binding of non-radioactive, unmodified EGF under the same conditions. The concentration of modified EGF is extrapolated from the standard curve made for unmodified EGF. Acylated EGF with acyl side chains ranging from C2 to C8 retained biological activity according to the RBA.
The shelf stability of EGF and acylated EGF derivatives with different degrees of modification and acyl side chains was studied using the Receptor Binding Assay (RBA) system. […]

The next data set has as its target T1, trypsin (Bos taurus, UniProt P00760).
T1 construct: purchased Worthington Biochem Corp
T1 sequence (P00760 24-246): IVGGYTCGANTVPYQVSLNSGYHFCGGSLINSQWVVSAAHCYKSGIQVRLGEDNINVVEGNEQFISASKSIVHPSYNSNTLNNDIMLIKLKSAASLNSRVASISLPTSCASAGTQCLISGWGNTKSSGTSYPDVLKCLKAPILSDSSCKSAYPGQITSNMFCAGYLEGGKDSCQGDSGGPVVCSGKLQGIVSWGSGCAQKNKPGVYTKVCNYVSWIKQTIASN
Description: in vitro susceptibility to proteolytic degradation (tryptic digestion, HPLC). The data set is classed as in vitro ADME.

The subject of another data set is EGF sensitive cell line. Description: mitogenic assay, tritium labelled thymidine incorporation. It is filed as cell-based. The note with it: compared with C2 acylated EGF. Here is the method:
For mitogenic assay systems, an EGF sensitive cell line is grown to confluency at the bottom of microwell plates. After replacing the regular growth media with growth factor poor media, modified EGF is added with tritium labelled thymidine. The extent of incorporation of the tritium labelled thymidine in the presence and absence of growth factors is then weighed. The effects of modified EGF are compared with those of unmodified EGF under the same system.
On the technique in general: Dividing cells build labelled thymidine or BrdU into new DNA.

With “C8 -EGF: acylated human EGF with C8 acyl side chain”, in data set [1], the “activity retained (RBA), 2 months/4° C.” value worked out at 83.19%; the “activity retained (RBA), 2 months/37° C.” value amounted to 69.04%; the “activity retained (RBA), stored time 0” value was 100%.

For the substance “Control EGF: Recombinantly produced human EGF (Chiron Corporation), unmodified 53 amino acid polypeptide, used as control [reference compound]”, the fraction digested entry with trypsin (mixture C2-EGF:native EGF 1.5 to 1, TPCK-trypsin, within about 20 minutes) is on record as “over 85%”. In addition, in the data set with trypsin (within 5 minutes post-incubation, 30° C.), the cleavage by trypsin result is on record as “over 65%”. Moreover, in the data set with trypsin (within 2 hours post-incubation), the “remaining molecules cleaved by trypsin” value was found to be 35%. Besides, in data set [1], the “activity retained (RBA), 2 months/4° C.” value was 81.09% and 81%; the “activity retained (RBA), 2 months/37° C.” value was 57.52% and 58%; the “activity retained (RBA), stored time 0” value stood at 100%.

“C6 -EGF: acylated human EGF with C6 acyl side chain”: in data set [1], the “activity retained (RBA), 2 months/4° C.” value is listed as 61.88%; the “activity retained (RBA), 2 months/37° C.” value stood at 66.94%; the “activity retained (RBA), stored time 0” value came out at 100%.

“C12: acylated EGF having an acyl side chain of C12”: in the data set on EGF sensitive cell line, the “reactivity in the mitogenic assay” value was “nearly as reactive as C2”.

As to “C2 -EGF: human EGF triacylated with acetyl groups”, the “remaining fraction that resisted proteolysis” value with trypsin (mixture C2-EGF:native EGF 1.5 to 1, TPCK-trypsin, up to 4 hours incubation) is 75-80%. In addition, in the data set with trypsin (trypsin, over 4 hours incubation at 30° C.), the “fraction that resisted proteolytic cleavage at Arg 41 and Arg 45” value is recorded as “over 75%”. The “tryptic fragments generated (HPLC, cation exchanger column)” value with trypsin (tryptic digestion, substance alone) is “did not generate any fragment”. Moreover, in data set [1], the “activity retained (RBA), 2 months/37° C.” value is 87.37% and 88%; the “activity retained (RBA), stored time 0” value is recorded as 100%. For the same substance, the “improvement of retained activity over control unmodified native EGF” value in data set [1] (stored at 37° C., 2 months) amounted to 30%.
